This note sets out measurements from patent US20040131609A1 (published 2004).

The labels stand for the following.
B1: clone 3 (PFFF) (Fab, V domains shown)
VH: QVTLRESGPALVKPTQTLTLTCTFSGFSLSTPGMSVGWIRQPPGKALEWLADIWWDDKKDYNPSLKSRLTISKDTSKNQVVLKVTNMDPADTATYYCARSMITNFYFDVWGQGTTVTVSS
VL: DIQMTQSPSTLSASVGDRVTITCSASSSVGYMHWYQQKPGKAPKLLIYDTFKLASGVPSRFSGSGSGTEFTLTISSLQPDDFATYYCFQGSFYPFTFGGGTKVEIK
B2: clone 9 (PFSW) (antibody, V domains shown)
VH: B1 VH
VL: B1 VL with F51S, F92W
B3: clone 10 (PFSF) (antibody, V domains shown)
VH: B1 VH
VL: B1 VL with F51S
B4: clone 21 (SWYF) (antibody, V domains shown)
VH: B1 VH with P32S, F105W
VL: B1 VL with F51Y
B5: clone 12 (PWFF) (antibody, V domains shown)
VH: B1 VH with F105W
VL: B1 VL
B6: clone 14 (SFFW) (antibody, V domains shown)
VH: B1 VH with P32S
VL: B1 VL with F92W
B7: clone 2 (AFFG) (Fab, V domains shown)
VH: B1 VH with P32A
VL: B1 VL with F92G
B8: clone 11 (PWFW) (antibody, V domains shown)
VH: B1 VH with F105W
VL: B1 VL with F92W
B9: clone 1 (AFSF) (Fab, V domains shown)
VH: B1 VH with P32A
VL: B1 VL with F51S
B10: clone 7 (PFFG) (antibody, V domains shown)
VH: B1 VH
VL: B1 VL with F92G
B11: clone 5 (PFFW) (antibody, V domains shown)
VH: B1 VH
VL: B1 VL with F92W
B12: clone 6 (PFYF) (antibody, V domains shown)
VH: B1 VH
VL: B1 VL with F51Y
B13: clone 20 (SFSF) (antibody, V domains shown)
VH: B1 VH with P32S
VL: B1 VL with F51S
B14: clone 18 (SFFG) (antibody, V domains shown)
VH: B1 VH with P32S
VL: B1 VL with F92G
B15: clone 15 (AFSG) (antibody, V domains shown)
VH: B1 VH with P32A
VL: B1 VL with F51S, F92G
B16: clone 4 (PFFY) (antibody, V domains shown)
VH: B1 VH
VL: B1 VL with F92Y
B17: clone 13 (SFFF) (antibody, V domains shown)
VH: B1 VH with P32S
VL: B1 VL
B18: clone 19 (SFSW) (antibody, V domains shown)
VH: B1 VH with P32S
VL: B1 VL with F51S, F92W
B19: reference antibody IX-493 (SWSG) (Fab, V domains shown)
VH: B1 VH with P32S, F105W
VL: B1 VL with F51S, F92G
notes: also called Basic; basic antibody
B20: clone 16 (PFSG) (antibody, V domains shown)
VH: B1 VH
VL: B1 VL with F51S, F92G
B21: clone 17 (PWSW) (antibody, V domains shown)
VH: B1 VH with F105W
VL: B1 VL with F51S, F92W

Numbering of substitutions follows the chain as printed.

T1 sequence (P03420 26-524): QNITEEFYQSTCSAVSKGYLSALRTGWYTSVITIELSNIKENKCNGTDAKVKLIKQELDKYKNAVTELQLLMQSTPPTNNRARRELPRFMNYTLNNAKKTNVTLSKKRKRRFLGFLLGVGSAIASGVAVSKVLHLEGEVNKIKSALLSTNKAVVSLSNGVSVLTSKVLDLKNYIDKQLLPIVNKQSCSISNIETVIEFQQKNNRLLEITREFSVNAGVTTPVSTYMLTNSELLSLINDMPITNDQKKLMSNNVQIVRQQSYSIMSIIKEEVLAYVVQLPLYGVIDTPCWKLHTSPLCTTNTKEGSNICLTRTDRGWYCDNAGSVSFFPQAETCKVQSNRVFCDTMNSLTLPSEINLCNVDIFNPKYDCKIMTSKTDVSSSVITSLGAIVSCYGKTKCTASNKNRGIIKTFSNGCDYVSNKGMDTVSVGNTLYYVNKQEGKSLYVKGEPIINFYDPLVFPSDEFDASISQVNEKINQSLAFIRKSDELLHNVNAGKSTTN

This assay addresses T1, RSV F antigen (respiratory syncytial virus (RSV), UniProt P03420 26-524).
T1 construct: also called F antigen of RSV; RSV F protein
Briefly: antibody titration ELISA on 500 ng RSV F antigen; qualitative score from titration curves. Background: ELISA stands for enzyme-linked immunosorbent assay.
With B1, the “Ag Score” value is 4 arbitrary score (0-4). The result for B2 reads 3 arbitrary score (0-4); that for B3, 3 arbitrary score (0-4).

As for B4, the “Ag Score” value was 2 arbitrary score (0-4).

Regarding B5, the “Ag Score” value is 2.5 arbitrary score (0-4). On to B6, for which the “Ag Score” value was 2.5 arbitrary score (0-4). As for B7, the “Ag Score” value was 4 arbitrary score (0-4). The result for B8 reads 3 arbitrary score (0-4). The result for B9 reads 4 arbitrary score (0-4); that for B10, 3 arbitrary score (0-4); that for B11, 3.5 arbitrary score (0-4). In the case of B12, the “Ag Score” value is 3.5 arbitrary score (0-4). B13: the “Ag Score” value was 2 arbitrary score (0-4). Take B14: the “Ag Score” value was 2 arbitrary score (0-4). Under B15 stands 2.5 arbitrary score (0-4); under B16, 3.5 arbitrary score (0-4). Under B17 stands 2.5 arbitrary score (0-4); under B18, 2 arbitrary score (0-4).

B19: the “Ag Score” value was 0.1 arbitrary score (0-4). Take B20: the “Ag Score” value is 2 arbitrary score (0-4). Under B21 stands 2 arbitrary score (0-4).
